Reference: publication PMC10661074 (Protein Science : A Publication of the Protein Society, 2023)
Numbering of substitutions follows the chain as printed.

B1: HFt‐W4 (natural protein, human, UniProt P02794 1-183, looked up)
chain: MTTASTSQVRQNYHQDSEAAINRQINLELYASYVYLSMSYYFDRDDVALKNFAKYFLWQSWEEREHAEKLMKLQNQRGGRIFLQDIKKPDCDDWESGLNAMECALHLEKNVNQSLLELHKLATDKNDPWLCDFIETHYLNEQVKAIKELGDWVTNLRKMGAPESGLAEYLFDKHTLGDSDNES
notes: human ferritin heavy chain (H ferritin) with four substitutions to tryptophan; synthetic gene in pET22b; 24-mer cage; In the BLI experiment the cage was loaded with ellipticine (a small molecule, about 98 molecules per cage) by a pH jump; the protein is the same; also called HFt‐W4 mutant; hydrophobicity‐enhanced ferritin nanoparticle; source: E. coli, purified (ammonium sulfate fractionation, …)
B2: HFt‐W6 (natural protein, human, UniProt P02794 1-183, looked up)
chain: B1 chain with Y138W, F171W
notes: human ferritin heavy chain (H ferritin) with six substitutions to tryptophan; synthetic gene in pET22b; 24-mer cage as purified; also called HFt‐W6 mutant; source: E. coli, purified (ammonium sulfate fractionation, heat treatment at 70°C, DNase, Superdex 200 SEC); copies: 24

Assays:
[1] = biological target: the molecule itself; assay: SEC; analytical HP‐SEC, Agilent AdvanceBio SEC 300 Å column, phosphate‐buffered saline pH 7.4, 1.0 mL/min, UV 220 and 280 nm; purified ferritins before the pH jump
His‐tagged TfR1 = biological target: T1, His‐tagged TfR1 (UniProt P02786 101-760); assay: BLI; Octet N2; His‐tagged TfR1 (50 μg/mL) immobilised on Ni‐NTA biosensors; HFt 25–500 nM or HFt‐W4 loaded with ellipticine 50–400 nM in solution; single exponential fits; settings: both partners purified
T1 construct: transferrin receptor 1 (TfR1); No catalogue number is printed; also called transferrin receptor TfR1; TfR1 receptor; source: bought: Merck
T1 sequence (P02786 101-760): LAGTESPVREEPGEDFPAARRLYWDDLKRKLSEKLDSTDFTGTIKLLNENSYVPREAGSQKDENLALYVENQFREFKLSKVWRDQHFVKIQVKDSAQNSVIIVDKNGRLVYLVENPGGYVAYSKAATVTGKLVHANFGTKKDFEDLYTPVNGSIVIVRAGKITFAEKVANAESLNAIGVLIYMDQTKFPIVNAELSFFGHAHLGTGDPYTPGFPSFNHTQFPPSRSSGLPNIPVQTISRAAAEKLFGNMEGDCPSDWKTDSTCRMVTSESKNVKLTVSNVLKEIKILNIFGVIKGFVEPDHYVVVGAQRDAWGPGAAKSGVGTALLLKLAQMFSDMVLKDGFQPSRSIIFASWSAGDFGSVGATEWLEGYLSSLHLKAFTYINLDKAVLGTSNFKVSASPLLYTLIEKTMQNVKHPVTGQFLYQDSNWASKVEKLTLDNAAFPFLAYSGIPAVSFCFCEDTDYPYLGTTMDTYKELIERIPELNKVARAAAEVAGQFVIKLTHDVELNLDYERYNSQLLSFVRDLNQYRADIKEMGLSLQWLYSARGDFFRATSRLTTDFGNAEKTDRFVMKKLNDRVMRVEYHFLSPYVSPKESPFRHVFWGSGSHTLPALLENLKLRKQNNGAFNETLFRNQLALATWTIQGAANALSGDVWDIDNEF

Binder | stoichiometry N [1] | Kd (His‐tagged TfR1)
B1 | 24 | 25 nM
B2 | 24 | –
